Measured values taken from paper PMC8339350.
Where “and” joins values, the source holds several entries; their conditions need not be identical. Equal values may be shown once.

Experiments:
[1] = target: AKAP18 (Homo sapiens) (UniProt Q9P0M2); details: cited from earlier work
[2] = target: GST-AKAP18α (human); test: BLI; Octet RED96; anti-GST probes loaded with GST protein at 200 nM; room temperature; 50 mM Tris HCl, 200 mM NaCl, 5 mM DTT, 0.1% BSA, pH 8.0; steady-state analysis for KD
[3] = target: full-length SPA17 (sperm autoantigenic protein 17), human (human) (UniProt Q15506); test: SEC-MALS; Wyatt system on Superdex 200 Increase 10/300; 20 mM Tris, pH 8, 200 mM NaCl, 5 mM DTT; 0.5 ml/min

RIIα, sequence (P13861 2-404): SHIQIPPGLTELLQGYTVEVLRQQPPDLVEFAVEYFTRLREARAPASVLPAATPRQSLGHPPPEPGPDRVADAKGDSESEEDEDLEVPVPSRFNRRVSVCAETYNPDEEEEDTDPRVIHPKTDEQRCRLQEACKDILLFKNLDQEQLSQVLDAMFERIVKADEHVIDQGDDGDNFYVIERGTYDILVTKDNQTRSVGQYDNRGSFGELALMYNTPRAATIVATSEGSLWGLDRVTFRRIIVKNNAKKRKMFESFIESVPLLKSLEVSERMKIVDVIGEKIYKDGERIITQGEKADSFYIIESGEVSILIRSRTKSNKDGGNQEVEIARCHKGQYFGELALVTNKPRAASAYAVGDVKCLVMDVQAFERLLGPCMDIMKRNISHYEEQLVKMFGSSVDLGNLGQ

For RIIα (from UniProt P13861), the Kd [1] is listed as 31 nM.

Work on “SPA17 1 to 75-ROPN1L 1 to 75 heterodimer (from UniProt Q15506 1-75; Q96C74 1-75) (complex)” yielded a Kd [2] of 82 nM.

In the case of “full-length SPA17 (sperm autoantigenic protein 17), human (from UniProt Q15506 1-151) (natural protein)”, the stoichiometry N [3] is reported as 4 and 2.
